Entries after “also recorded” stand apart in the source; their conditions may differ.
What was measured:
[1] = test system: UPEC iron acquisition genes; assay: Real time PCR of UPEC iron acquisition genes; format: cell-based, Escherichia coli
From the text: To determine whether NGAL-Scn induced bacterial iron starvation, we measured a series of iron acquisition systems (9, 10) that are regulated by iron load via fur, including catecholates enterochelin (ent genes) and salmochelin (iro genes), the hydroxamate aerobactin (iuc genes) (11, 12), their receptors, fepA, iroN (13-15), and iutA, respectively, and additionally the heme scavenging chu receptors (15). […] In sum, uNGAL-Scn is expressed within hours of the onset of infection in vivo, and it is required to limit bacterial growth during the early phases of acute cystitis, most likely by blocking iron acquisition.
Total RNA was isolated with the mirVANA (for eukaryotic cells) or ribopure (for bacteria) RNA extraction kits (Ambion). First strand cDNA was synthesized with Superscript III (Invitrogen). Real-time PCR was performed in a 7500 Fast (Applied Biosystems) with a SYBR green supermix reagent (Fisher) and primers (Table 2) using β-actin (eukaryotic cells) and gapA (for bacteria) as internal controls. Fold amplification of transcripts was measured by the […] method.

[2] = test system: explanted bladders; assay: NGAL-Scn secretion by bladders explanted from LPS treated mice; format: in vivo, mouse
Experimental: FIGS. 17A-B. C57/BL6 mice challenged with i.p. LPS (1 mg kg^−1) were explanted and media collected at 12 h and 24 hr of culture. FIG. 17A. […] FIG. 17B. NGAL-Scn was detected by Western blot.
Because both the bladder and kidney might contribute to uNGAL-Scn expression, we performed in situ hybridization 1 d post-TU challenge with UPEC (20-30 μl of 5×10^8 CFU ml^−1 i.e. ˜1×10^7 total CFU). We found Ngal-Scn message in collecting duct epithelia (FIG. 8H) (1) and in a thin luminal layer of bladder epithelia (FIG. 8I), but the majority of Ngal-Scn transcripts were found in the kidney (FIG. 8J). Moreover, in a controlled experiment, bladders explanted from mice treated with LPS (1 mg kg^−1) secreted approximately 10 ng per bladder over 12 h (FIG. 17), a small percentage of even a single collection of urine (250 ng ul^−1) from the treated mouse. In sum, while many types of genitourinary epithelia can express uNGAL-Scn in response to cystitis, the kidney was a dominant source of NGAL-Scn, even though kidney bacteria fell at, or below, our limit of detection (10^2 CFU kidney^−1; FIG. 18), and an inoculum less than 50 μl is not likely to generate gross vesico-ureteral reflux (VUR) (24).

[3] = test system: NGAL-Scn expression; assay: NGAL-Scn expression in mice after i.p. LPS; format: in vivo, mouse
Experimental: To identify elements of the pathway that detect UPEC, we evaluated whether IC could respond to a low dose of LPS (i.p. 1 mg kg^−1), a TLR4 agonist. […] To assess the role of TLR4 further, we inoculated LPS-responsive C3H/HeN (Lps“) and C3H/HeOuJ (Lps”) mice and LPS-defective C3H/HeJ (Lps^d) mice by TU with […] of 5×10^8 CFU ml^−1 (n=15). […] To confirm that kidney expressed TLR4 was critical, we cross-transplanted Lps^d kidneys into nephrectomized Lps^n controls and vice versa. […] Concurrently, TLR4 modulates the burden of urinary infection, by regulating the expression of NGAL-Scn in kidney epithelia.

[4] = test system: Ngal expression in the kidney; assay: Kidney Ngal expression (QPCR) after lipid A/LPS in reciprocal kidney cross-transplants; format: in vivo, mouse; conditions: 1 mg/kg, vs untreated cross transplant, n=3
Experimental: To determine whether uNGAL originated from the kidney in a TLR-dependent fashion, kidney transplantation between Tlr-4-mutant CH3/HeJ mice and wild type CH3/HeOuJ mice was performed. To evaluate the contribution of TLR signaling to NGAL expression a cross-transplant model using TLR mutants and systemic administration of LPS as a positive control was used. The CH3/HeJ kidneys from the LPS-insensitive mice were transplanted into CH3/HeOuJ LPS-sensitive (control) mouse bodies, and vice versa. Two weeks after graft maturation, when uNGAL and sCr had stabilized to normal values, a low dose of lipid A (1 mg/kg of body weight) was administered to induce Ngal expression in the kidney (FIG. 4a). […] It is not surprising that there was some Ngal induction in the knockout (KO) kidney because CH3/HeJ are partial KOs and it has also been previously shown that lipid A can signal through the MyD88-dependent pathway without a functioning Tlr4. […]
To identify elements of the pathway that detect UPEC, we evaluated whether IC could respond to a low dose of LPS (i.p. 1 mg kg^−1), a TLR4 agonist. […]
Surgical cross-transplants (1, 44) were monitored for two weeks until serum creatinine stabilized to 0.2 mg dL^−1 and uNGAL-Scn was undetectable prior to ip challenge with LPS (1 mg kg^−1).

[5] = test system: Primary Ngal-Luciferase2/mCherry medullary cells; assay: NGAL-Luc2 expression in primary Ngal-Luciferase2/mCherry kidney cells co-cultured with UPEC; format: cell-based, mouse; conditions: co-culture with UPEC 3 h; antibiotic added at the time of UPEC; n=3
Experimental: […] Alternatively, primary cells were treated with Lipid A and in some cases with NF-kB inhibitors, MG132 (Cayman Chemical), and Analogues 27, 30, and 3121 and Analogue 3022. The Luciferase substrate (Dual-Glo™ Luciferase Assay System; Promega) was added and luminescence from Luc2 and fluorescence from mC (excitation of 500-550 nm and emission of 575-650 nm) were imaged in a Xenogen IVIS optical imaging system.
Luc2/mC di-fusion reporter mice (8-12 weeks of age) were perfused with PBS and kidney cells were isolated with collagenase (2 mg ml^−1; Sigma), and cultured (1×10^5 well^−1 in 24-well plates; Falcon) in DMEM/F12 medium supplemented with 10% FBS, 1% penicillin-streptomycin, and 46 mg/l L-Valine for 24 h. […] Luciferase substrate (Dual-Glo Luciferase Assay System; Promega) was added and luminescence from Luc2 and fluorescence from mC (excitation 500-550 nm and emission 575-650 nm) were imaged in a Xenogen IVIS optical imaging system.

[6] = test system: uropathogenic Escherichia coli strain (CFT073); assay: In vitro growth of UPEC CFT073 in M9 minimal medium or urine; format: cell-based; conditions: for bacterial growth after addition of FeCl3 to NGAL: M9 with NGAL 5 μM plus FeCl3 1 mM; for bacterial growth (optical density): M9 minimal medium; for growth of UPEC (OD600) in urine: human urine pH 5.8 (<pH 6.0), NGAL-Scn 5 μM
From the text: To investigate the relationship between NGAL and UPEC a pyelonephritogenic clinical isolate of uropathogenic Escherichia coli, CFT073, was aliquoted in 96 well plates containing M9 minimal medium supplemented with MgCl2 and glucose (see green hashed line: FIG. 1a), and bacterial growth was monitored by spectrophotometry.
Next, we tested whether NGAL-Scn was sufficient to inhibit urinary bacterial growth. We used UPECs grown to log phase in an iron restricted minimal media (M9), and then subsequently transferred the bacteria into urine or M9. Growth in human urine (<pH 6.0) was similar to growth in acidified M9 (<pH 6.0; FIG. 8C, D).
A single colony of CFT073 was selected from a plate and grown in M9 to log phase. Bacteria were pelleted and resuspended in either M9 or urine and monitored in a 96 well plate on a Tecan 200 Promicroplate reader for up to 72 h.

[7] = test system: Enterochelin:Fe; assay: Enterochelin:Fe capture by NGAL-Scn; format: binding; conditions: 3:1 Enterochelin:Fe::Ngal-Scn ratio; washed 5 times on 10 k filter
Experimental: . IPTG (0.2 mM final concentration) was added for 5 h. Bacterial pellets were lysed by sonication in lysis buffer, followed by Triton-X 100 (0.5%) treatment for 30 min on ice. Supernatant was collected after high speed centrifugation and filter sterilized (0.45 μm). NGAL-Scn-GST was purified by binding to Glutathione Sepharose beads followed by cleavage of the GST tag with thrombin. Released protein was fractionated by a Sephacryl S100HR column. Enterochelin:Fe capture by NGAL-Scn was tested (Emc Microcollections gmbh) at a 3:1 Enterochelin:Fe::Ngal-Scn ratio.

[8] = test system: Enterochelin:Fe; conditions: pH 4.0; cited from earlier work
[9] = M9 with iron added to match urinary concentration (806 nM)

With CC(=O)N(O)CCCCCNC(=O)CCC(=O)N(O)CCCCCNC(=O)CCC(=O)N(O)CCCCCN [DFO, reference compound] the “UPEC iron acquisition gene expression with DFO” value ([1]; M9 media, DFO 50 μM or 5 μM, n=5) was “modulated”.

In the case of Lipid A [LPS], the “NGAL-Scn upregulation in bladder explant media at 12 h” value ([2]; C57/BL6, i.p. LPS 1 mg kg^−1, 12 h of culture, vs control, n=10) is reported as 2 fold, the “NGAL-Scn upregulation in bladder explant media at 24 h” value ([2]; C57/BL6, i.p. LPS 1 mg kg^−1, 24 h of culture, vs control, n=10) is reported as 5 fold and the “NGAL-Scn secreted by explanted bladder” value ([2]; LPS 1 mg kg^−1, over 12 h) is reported as “approximately 10 ng per bladder”. The “NGAL-Scn in a single collection of urine from the treated mouse” value ([3]; LPS 1 mg kg^−1) was 250 ng/µL, the “NGAL-Scn expression in intercalated cells / kidney medulla” value ([3]; i.p. LPS 1 mg kg^−1, in situ hybridization) was “induced NGAL-Scn expression; also recorded: detected in alternating cells” and the “increase in Ngal expression, Tlr-4-mutant (Lps^d) kidney in wild type (Lps^n) host” value [4] was 4.5±2.6 fold. For the same molecule, the “increase in Ngal expression, wild type (Lps^n) kidney in Tlr-4-mutant (Lps^d) host” value [4] was 15.6±2.3 fold.

For gentamicin, the “NGAL-Luc2 expression in response to UPEC” value [5] was “blunted”.

With [Cl][Fe]([Cl])[Cl] [FeCl3, reference compound] the “bacterial growth after addition of FeCl3 to NGAL” value [6] was “rescued” and the “bacterial growth after addition of FeCl3 to NGAL” value ([6]; listed as iron) was “reversed”.

B1: Neutrophil Gelatinase Associated Lipocalin (NGAL)-Siderocalin (Scn) (protein, UniProt P11672 21-200, looked up)
Neutrophil …: QDSTQNLIPAPSLLTVPLQPDFRSDQFRGRWYVVGLAGNAVQKKTEGSFTMYSTIYELQENNSYNVTSILVRDQDQGCRYWIRTFVPSSRAGQFTLGNMHRYPQVQSYNVQVATTDYNQFAMVFFRKTSENKQYFKITLYGRTKELSPELKERFTRFAKSLGLKDDNIIFSVPTDQCIDN
modifications: recombinant, E. coli
notes: Recombinant mouse NGAL-Scn protein produced in BL21 E. coli
For B1, the “bacterial growth (optical density)” value ([6]; NGAL 5 μM) was “greatly inhibited”, the “bacterial growth (optical density)” value ([6]; NGAL 5 μM, listed as mouse (m) NGAL) was “significantly inhibited” and the “bacterial growth (optical density)” value ([6]; NGAL 5 μM, listed as uNGAL) was “inhibit growth”. The “growth of UPEC in M9 at pH 5.8” value ([6]; M9 pH 5.8 (typical urine pH), NGAL 5 μM, n=3) was “robust inhibition”, the “growth of UPEC in M9 at pH 7” value ([6]; M9 pH 7, NGAL 5 μM, n=3) was “reduced (and variable) growth inhibition” and the “growth of UPEC (OD600) in urine” value ([6]; n=3) was “greatly inhibited”. The “growth of UPEC (OD600) in urine” value ([6]; n=3, listed as uNGAL-Scn) was “inhibited the growth”, the “Enterochelin:Fe binding by coloration” value [7] was “binding detected” and the “enterochelin binding at low pH” value [8] was “binds enterochelin even at pH 4.0”. For the same molecule, the EntF activation [1, 9] was 2410 fold, the iucD activation [1, 9] was 16970 fold and the iutA activation [1, 9] was 1.9 fold. It also gave a chuS upregulation ([1]; UPEC in M9, NGAL-Scn 5 μM) of 26.9 fold, an entA upregulation ([1]; UPEC in M9, NGAL-Scn 5 μM) of 396.2 fold and an entF upregulation ([1]; UPEC in M9, NGAL-Scn 5 μM) of 36294.5 fold. The fepA upregulation ([1]; UPEC in M9, NGAL-Scn 5 μM) was 18.0 fold, the iroN upregulation ([1]; UPEC in M9, NGAL-Scn 5 μM) was 207 fold and the iucA upregulation ([1]; UPEC in M9, NGAL-Scn 5 μM) was 12568.5 fold. For the same molecule, the iucD upregulation ([1]; UPEC in M9, NGAL-Scn 5 μM) was 19.0 fold, the iutA upregulation ([1]; UPEC in M9, NGAL-Scn 5 μM) was 13.4 fold and the “entA, entF, and iha gene expression” value ([1]; UPEC in M9, NGAL-Scn 5 μM for 30 min, n=5) was “upregulation”.
